Target: AMdnB (Anabaena sp. PCC 7120)
Assay: ITC

Kd: 12.3 µM
Binder: MPENRQEDLNAQAVPFFARFLEGQ [AMdnA_(1–24) peptide (truncated AMdnA LP)]
